Holding throughout (type): cell-based, human
The test system of data set [1] is osteoblastic markers. The data set is described as follows: RT-PCR of osteoblastic markers in differentiating hMSC cells treated with sclerostin. The note with it: sclerostin 10 μg/ml, 40 hrs. How it is done: FIG. 14 illustrates that human sclerostin protein decreases expression of osteoblastic markers in cultures of differentiating hMSC cells. hMSC cells were plated in Osteoblast-Inducing media. After 3 days, partially purified sclerostin protein (10 μg/ml) or proteins purified from Sf9 conditioned media (control) were added. Cells were harvested after 40 hrs and RNA was prepared for RT-PCR analyses of osteoblastic markets.
To determine the effect of sclerostin protein on the expression of osteoblastic markers in cultures of differentiating hMSC cells, RNA was isolated after a 40-hr treatment and analyzed by RT-PCR (FIG. 14).

For data set [2], the system named is alkaline phosphatase (ALP) activity in hMSC cells. The data set is described as follows: alkaline phosphatase activity in differentiating hMSC cells. As to conditions: BMP-6 500 ng/ml plus increasing concentrations of sclerostin-Flag protein.
Data set [3] has as its system apoptosis genes. The data set is described as follows: Apoptosis Gene Array of hMSC treated with sclerostin. How it is done: In another study, hMSC were treated with vehicle or sclerostin for 6 hrs or 48 hrs. Cells were harvested, RNA prepared and used for the analysis of a commercially available Apoptosis Gene Array (SuperArray, Bethesda, Md.). To further investigate the effects of sclerostin on the apoptosis of hMSC, RNA was harvested from vehicle and sclerostin-treated cells and used the RNA to probe a cDNA expression array containing apoptosis genes. The results for vehicle and sclerostin-treated samples were compared and data (corrected for background) were expressed as a ratio of sclerostin to vehicle.

Where [4] appears, read: hMSC, 6 hrs, Anti-apoptotic gene.
The mark [5] stands for this setting: hMSC, 48 hrs, Anti-apoptotic gene.
The mark [6] stands for this setting: hMSC, 48 hrs, Proapoptotic gene.

Data on one molecule can be found in patent US7655420B2, “Methods to increase or decrease bone density” (Celltech R & D, Inc., priority 2002, dated 2010).

Entries after “also recorded” stand apart in the source; their conditions may differ.

B1: sclerostin: partially purified baculovirus-expressed human sclerostin protein, SOST gene product (SEQ ID NO:3); also made with a FLAG tag (protein, listed as Homo sapiens)
chain: MQLPLALCLVCLLVHTAFRVVEGQGWQAFKNDATEIIPELGEYPEPPPELENNKTMNRAENGGRPPHHPFETKDVSEYSCRELHFTRYVTDGPCRSAKPVTELVCSGQCGPARLLPNAIGRGKWWRPSGPDFRCIPDRYRAQRVQLLCPGGEAPRARKVRLVASCKCKRLTRFHNQSELKDFGTEAARPQKGRKPRPRARSAKANQAELENAY
modifications: optional FLAG tag
As to B1, in data set [1], the “RNA levels for osteoblast phenotypic markers PTHr, Type I collagen, BMP-2 and BMP-6” value is listed as “significantly reduced”; the “RNA levels of markers for adipocytes (PPARγ2) or undifferentiated mesenchymal cells (endoglin)” value is “not affected”. The “BMP-6 induced alkaline phosphatase activity” value in data set [2] is reported as “reduced; also recorded: decreased”. Further, the “increase in the expression of apoptosis-associated genes and genes involved in cell survival” value in data set [3] (hMSC treated for 6 hrs with sclerostin) was 2 to 4 fold. In data set [3] (setting [4]), the “Ratio of sclerostin to vehicle, Bruce” value is listed as 1.45 ± 0.75; the “Ratio of sclerostin to vehicle, Survivin, IAP2” value came to 1.32 ± 0.48; the “Ratio of sclerostin to vehicle, XIAP” value is recorded as 2.01 ± 0.64. Moreover, in data set [3] (hMSC, 6 hrs, Proapoptotic gene), the “Ratio of sclerostin to vehicle, BAX” value amounted to 1.53 ± 0.2; the “Ratio of sclerostin to vehicle, Bcl10” value came to 4.09 ± 2.13; the “Ratio of sclerostin to vehicle, Caspase 3” value was determined as 2.46 ± 0.69; the “Ratio of sclerostin to vehicle, Caspase 4” value is on record as 1.83 ± 1.12. In addition, in data set [3] (hMSC, 6 hrs, Proapoptotic gene), the “Ratio of sclerostin to vehicle, Caspase 7” value was determined as 1.76 ± 0.18; the “Ratio of sclerostin to vehicle, Hrk” value is on record as 1.59 ± 0.39; the “Ratio of sclerostin to vehicle, Myd88” value was 1.4 ± 0.31. For the same molecule, in data set [3] (setting [5]), the “Ratio of sclerostin to vehicle, Casper” value was found to be 2.68 ± 0.28; the “Ratio of sclerostin to vehicle, I-TRAF” value came out at 2.05 ± 0.54; the “Ratio of sclerostin to vehicle, Mdm2” value is 1.66 ± 0.34. In addition, in data set [3] (setting [6]), the “Ratio of sclerostin to vehicle, Bak1” value came to 2.36 ± 0.74; the “Ratio of sclerostin to vehicle, Bax” value amounted to 1.64 ± 0.3; the “Ratio of sclerostin to vehicle, Bcl10” value worked out at 1.84 ± 0.76; the “Ratio of sclerostin to vehicle, Blk” value was 1.83 ± 0.12. In data set [3] (setting [6]), the “Ratio of sclerostin to vehicle, Myd88” value worked out at 2.64 ± 1.3.
